We go through one protein from article doi:10.1101/2023.05.25.542057 (bioRxiv, 2023).

As a reminder, the stoichiometry N is the number of molecules, sites or subunits per partner or assembly.

This data set concerns the molecule itself. Description: SEC-SAXS.

B1: CDAN1-interacting nuclease 1 (CDIN1), full-length, recombinant from bacteria (natural protein)
chain: MILTKAQYDEIAQCLVSVPPTRQSLRKLKQRFPSQSQATLLSIFSQEYQKHIKRTHAKHHTSEAIESYYQRYLNGVVKNGAAPVLLDLANEVDYAPSLMARLILERFLQEHEETPPSKSIINSMLRDPSQIPDGVLANQVYQCIVNDCCYGPLVDCIKHAIGHEHEVLLRDLLLEKNLSFLDEDQLRAKGYDKTPDFILQVPVAVEGHIIHWIESKASFGDECSHHAYLHDQFWSYWNRFGPGLVIYWYGFIQELDCNRERGILLKACFPTNIVTLCHSIA
For B1, the “stoichiometry N” value was 2.
